# Publication PMC7954794, “Protein context shapes the specificity of SH3 domain-mediated interactions in vivo” (Nature Communications, 2021)
# How the values were obtained:
# [1] = system: Abp1 PPIs; assay: DHFR-PCA of Abp1 SH3-swapped baits (Fig. 2B-D, S2C, S2F); assay type: cell-based, Saccharomyces cerevisiae; settings: number of interactions of Abp1 carrying the named SH3; sheet FigS2A-B
# Description: Having determined that multiple PPIs require SH3s, we asked whether the latter establish PPI specificity independently from their host proteins by swapping domains (Fig. 2A). Using the second round of genome editing, we individually replaced Abp1 SH3 with the 27 yeast SH3s and 3 human Abp1 orthologs’ SH3s (CTTN, HCLS1, and DBNL, Fig. 2B). The reintroduction of its own SH3 (Abp1SH3 in Abp1) reconstitutes almost perfectly Abp1’s interaction profile (Kendall’s τ = 0.93, Fig. 2B). […] No homologous SH3 domain fully re-establishes the normal Abp1 PPI profile (Fig. 2B and Supplementary Fig. 2C). However, we observe a significant correlation (cophenetic correlation = 0.20, p value = 0.005, Fig. 2C) between the similarity of PPI profiles (Fig. 2B) and the sequence similarity of the SH3s. […] Nonetheless, a subset of SH3-dependent PPIs is only observed with the endogenous domain. For instance, Hua2 and App1, both well-characterized partners of Abp1[14],[18],[19], are only detected when Abp1 contains its own SH3 (WT or swapped via editing). A given SH3 may therefore not be fully replaceable with other paralogous or orthologous domains. This pattern is confirmed by cellular growth phenotypic analyses (Supplementary Fig. 2D, E). PPIs, SH3 sequence similarity, and growth profiles under stress conditions are correlated (Supplementary Fig. 2D, E). This relationship is particularly clear when analyzing growth on media supplemented with hygromycin.
# The stuffing of YSC84 SH3 rendered the strain sterile and was therefore not used for this study as the assays require crosses. For genes containing two SH3s (BZZ1 and BEM1), a combination of this first stuffer with a second one ([…]) coding for a highly similar linker ([…]) was used, which allowed targeting each SH3 position independently. The two N-terminal domains of SLA1, which are separated by six nucleotides, were stuffed by a single stuffer. Cells containing pCAS were selected via the G418 resistance cassette from the plasmid on YPD plates (YPD + NAT 100 μg/ml (DHFR F[1,2] selection) + G418 200 µg/mL (Bioshop Canada)). Colonies were randomly selected and grown in YPD media without G418 to allow plasmid loss. The correct insertion of the stuffer was validated by PCR and Sanger sequencing. The SH3-swapped, -shuffled, and -mutated strains were constructed following a second CRISPR–Cas9 editing step with the same procedures. The stuffer sequences were targeted by specific gRNAs (one gRNA per stuffer) and replaced by PCR amplified specific SH3 (with 40 bp homology arms) or libraries of mutated SH3 domains for Deep Mutational Scanning (DMS) with 78 bp flanking homology regions. Validation of the SH3 domain insertions was done as we previously described except for DMS libraries (see below).
# The overall DHFR-PCA pipeline is based on Tarassov et al.[43] and the procedures have also been published as a visualized protocol. The screens were performed with robotically manipulated pin tools (BM5-SC1, S&P Robotics Inc.). First, the preys were cherry-picked from 96-well plates to omnitrays in a 384 format on YPD + HPH solid media. Plates were then combined into the 1536 format on YPD + HPH. The array was constituted of 575 preys previously shown to interact physically with at least one SH3-containing protein as reported in BioGRID V3.4.16 along with 40 negative controls. The prey array comprised a border of control strains of two rows and two columns corresponding to the PPI between LSM8-DHFR F[1,2] and CDC39-DHFR F[3]. This double border was used to remove border effects. Preys are present in duplicate at a randomized position in the 1536 array (except for YAL041W which is present four times per array). Baits were crossed with two prey plates, resulting in four independent bait–prey tests for each PPI. Baits were grown in liquid YPD + NAT and then transferred on solid YPD + NAT omnitrays. They were then replicated on YPD + NAT omnitrays in 1536 array format. […]
# [2] = system: Abp1 (1xFLAG); assay: Western blot expression level of Abp1 SH3-swapped baits (Fig. S2A-B); assay type: cell-based, Saccharomyces cerevisiae; set-up: Flag (2 bands): unit not given here; settings: sheet FigS2A-B; for Ratio Swap/WT Flag: Flag signal relative to Abp1 WT (Abp1-1 to Abp1-4 = 1); for Flag (2 bands): Western blot Flag signal (2 bands), Abp1 WT, SH3-deleted or SH3-swapped
# Procedure: Precultures of yeast cells expressing baits fused with the DHFR F[1,2]-FLAG were grown overnight at 30 °C with agitation in synthetic complete medium. The next day, cells were expanded in synthetic complete medium to reach their exponential phase (OD600 of around 1.0), pelleted, and frozen at −80 °C. The equivalent of fifty OD600 of cells was resuspended in ice-cold yeast lysis buffer (10 mM Tris-HCl pH 7.4, 150 mM NaCl, 0.5 mM EDTA (Millipore Sigma), 1% Triton X-100 (Millipore Sigma), and one cOmplete Mini Protease Inhibitor Cocktail (Millipore Sigma) per 10 mL) with […] glass beads (Millipore Sigma) and disrupted at 4 °C by 10 cycles of 2 min vortexing and 2 min cooldown. The equivalent of […] of lysed cells was used for the immunoprecipitation of the bait proteins using FLAG-M2 agarose beads (Millipore Sigma). The beads were incubated with the cell lysates for 120 min at 4 °C with a slow rotation, followed by three washes with the yeast lysis buffer.
# Protein extracts and affinity-purified baits from yeast and human lysed cells were migrated on 10% polyacrylamide gels. The separated proteins were then transferred to nitrocellulose membranes. Validation of correct protein loading was done with ponceau staining of the membranes. Before the primary antibody incubations, membranes were blocked in 5% milk. Protein signals were detected on an Amersham Imager 600RGB (GE Healthcare) following the incubation of the membranes with the appropriate HRP-conjugated secondary antibodies and the Clarity Western ECL Substrate (Bio-Rad). The antibodies used in this study are M2-HRP (A8592, Sigma, 1/50,000), rabbit anti-FLAG (F7425, Sigma, 1/1000), PAK (SC-881, Santa Cruz, 1/200), p130cas/BCAR1 (SC-860, Santa Cruz, 1/200), actin (Cell Signaling Technology, 1/2000), anti-mouse HRP (Cell Signaling Technology, 1/10,000) and anti-rabbit HRP (Cell Signaling Technology, 1/10,000). The quantification of the WB signals was performed with the Amersham Imager 600 analysis software (GE Healthcare).
Molecule,Interactions in Abp1 [1],Ratio Swap/WT Flag [2],Flag (2 bands) [2]
"Abp1-2 (protein, UniProt P15891 2-592, looked up) Actin-binding protein: ALEPIDYTTHSREIDAEYLKIVRGSDPDTTWLIISPNAKKEYEPESTGSSFHDFLQLFDETKVQYGLARVSPPGSDVEKIIIIGWCPDSAPLKTRASFAANFAAVANNLFKGYHVQVTARDEDDLDENELLMKISNAAGARYSIQTSSKQQGKASTPPVKKSFTPSKSPAPVSKKEPVKTPSPAPAAKISSRVNDNNDDDDWNEPELKERDFDQAPLKPNQSSYKPIGKIDLQKVIAEEKAKEDPRLVQKPTAAGSKIDPSSDIANLKNESKLKRDSEFNSFLGTTKPPSMTESSLKNDDDKVIKGFRNEKSPAQLWAERKAKQNSGNAETKAEAPKPEVPEDEPEGEPDVKDLKSKFEGLAASEKEEEEMENKFAPPPKKSEPTIISPKPFSKPQEPVKAEEAEQPKTDYKKIGNPLPGMHIEADNEEEPEENDDDWDDDEDEAAQPPLPSRNVASGAPVQKEEPEQEEIAPSLPSRNSIPAPKQEEAPEQAPEEEIEEEAEEAAPQLPSRSSAAPPPPPRRATPEKKPKENPWATAEYDYDAAEDNELTFVENDKIINIEFVDDDWWLGELEKDGSKGLFPSNYVSLGN",86,1,221127
"Fus1 (protein, UniProt P11710 1-512, looked up) Nuclear fusion protein FUS1: MVATIMQTTTTVLTTVAAMSTTLASNYISSQASSSTSVTTVTTIATSIRSTPSNLLFSNVAAQPKSSSASTIGLSIGLPIGIFCFGLLILLCYFYLKRNSVSISNPPMSATIPREEEYCRRTNWFSRLFWQSKCEDQNSYSNRDIEKYNDTQWTSGDNMSSKIQYKISKPIIPQHILTPKKTVKNPYAWSGKNISLDPKVNEMEEEKVVDAFLYTKPPNIVHIESSMPSYNDLPSQKTVSSKKTALKTSEKWSYESPLSRWFLRGSTYFKDYGLSKTSLKTPTGAPQLKQMKMLSRISKGYFNESDIMPDERSPILEYNNTPLDANDSVNNLGNTTPDSQITSYRNNNIDLITARPHSVIYGTTAQQTLETNFNDHHDCNKSTEKHELIIPTPSKPLKKRKKRRQSKMYQHLQHLSRSKPLPLTPNSKYNGEASVQLGKTYTVIQDYEPRLTDEIRISLGEKVKILATHTDGWCLVEKCNTQKGSIHVSVDDKRYLNEDRGIVPGDCLQEYD",50,0.8195,181205
"Boi2 (protein, UniProt P39969 1-1040, looked up) BEM1-interacting protein 2: MSNDREVPTLSQLNTTVSRDKDVSDTLSPDFDSKGSATGRDGGNFPMYIAINEYFKRMEDELDMKPGDKIKVITDDEEYKDGWYFGRNLRTNEEGLYPVVFTQKITVEKAPTLMRAKSTKRIYSPLTNEDPLLSSTFISENDSNSELPTPQPIETAASISRTANGKIERNLSLKNTMSDIDNALLEFKDDSIGPPDRFINSGRDEEHSITHETILSATDGLDVVESNSKPTTSSSTGFLNGDLENQATLINGIDTTKLNPVEAEFWSPEEITAYFIMEGYDVQSASRFQKHKISGKILLELELVHLKELDINSFGTRFEIFKEIEKIKEAIRTNGRSLNRASKTNNANIYNQLMPPANVDQRASYRGHVRKTSQSLEDLPSQQNFIPTPRNTRNSSASKHRPKSLVFDSQEANANIAPDVQIPQVVEEMAGNENLFVSPRRAPKPPSYPSPAQPPKSPLLNNTRTSPSPAQLYSWQSPTLSFSGPKRTSYIDQYSSSDSNFNSRSALPKNNQGGGKALSPIPSPTRNSVRNEDSEGKLTSSSKRNSVPYYGYAPESSSDRKSSCSSHEEEQFQETMNTFERPTSSIYADGSTIASISNDKLAHEKEGKKKPTRHSSSLSSKSKSDSRRNSSLKRSSSASRTSSFKKSSFMLSPFRQQFTDNAARSSSPEENPITSMPSEKNSSPIVDKKSSKKSRSKRRSVSAKEAEIFTETVKDDKNKRSASEAIKGETLKGKSLRQMTARPVAKKKQTSAFIEGLRSISVKEAMKDADFSGWMSKKGSGAMSTWKTRFFTLHGTRLSYFSSTTDTRERGLIDITAHRVVPAKEDDKLVSLYAASTGKGRYCFKLLPPQPGSKKGLTFTQPRTHYFAVDNKEEMRGWMAALIKTTIDIDTSVPIISSYTTPTVSLSKAQEMLAEAREETKLREQQMLENEEDEDQFLWDQQQLQQQQHDNNQGQADRTISASTQRTSDEDNTISTPNLSSANNTTIGSNGFSSPFLLASGLLSPGVARNSSMRGTEKKGKFSTEEDYFGDNSKHKTDKI",62,0.9819,95048
"Cyk3 (protein, UniProt Q07533 1-885, looked up) Cytokinesis protein 3: MATNLTSLKPPFKVKARYGWSGQTKGDLGFLEGDIMEVTRIAGSWFYGKLLRNKKCSGYFPHNFVILLEERLNSSTENGRQPSKIVESFEKSNKVVIPPVPSRYSDERPRPKKKLSSSMPNSPKKPVDSLTKARKAKSKEMVNEKNIYNTQSSRHHNNSAPNLPLASHSKPQVRNFEESMNNPLPPLPPLPDLDNMRKTDKRAPKKSYSANDLHMARSSREYNYYKDNQKFYDGFIPEKRYSLEEDSISSGLFSNSQYLNDSACSSENSFALMSDFSATSAGSFARHKYAQSFSDSLQRSQNANGCSTKINDSQEFGDSNASSRNGKMGDILRKIIIPKRNTNIYSSSVSSPKSPKAYPKLPDIQNLNLSATPDEARDWIAVKCHLNRARTLTKYDKHPRYMRALEENRDLILHPQDSIYNGLNTNEVKGNTKPGLVDVELAELNIEYIDKMTWKRCIRDGTMTLDSWAQTTFSARYSTVLEKLRGIYIFCTEMFALTDDNGTSDFSAEPQNLEKILYRKHCTPYELTWLFKKLANSLGITCEIVIGFLKTPSAINWEFKYNHCWLRILVNKEWRFIDVILGNVTNPIHEFVNNRKIKKAENSYFLMAPLEMIYTHIPPREFEQHIVPSIDQLSALYLPLVFPSFFKNELKLYKFSTALSFLEDSEIYECSLEIPNDVEVFASVVIPTDNEEASSAYRNMELALTQIKKQKAESGRRIALIKAVLPPNVNKGSLYIHSGVRGTQTSIANIHPLSMMVPLTHKGSNMKYEFVIKIPSESIQKIELYIVEPQSRYLFVGNEYSFEVIQSPSDGIVYSSDEGPNQNRKQPMAIKSPSGRVHELVKSDPHFPYGTWKGSIKIKEPGVWSALVIADSGIGWSVFAEWLCV",25,0.2689,59466
